Results reported in the NTF2 design screens of Basanta et al. (2020).

test: protease stability score; higher = more stable; yeast display proteolysis, trypsin and chymotrypsin;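 further: relative to predicted unfolded state with 0 unfolded-like and 1 meaning tenfold more protease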

Row | Sequence | protease stability score
1 | TEHEKFKEEWVRMFLRDWLTGNENTLRHLADPDTLLEINGRIFHGMHTISRWTEEHLRRIDHLRLEMHTVDVIGDFAHVHGTLKLHVGDKEHHVTFHINLFTINGRIKSIIVKEE | 1.43
2 | DEDTKRVEELMELWIEIWRTGDFKMLHHLLDPNVLLHVDIGDKHINVHGREEFTRFLEEELRKVKNAREEINDEKLVGDKVILDYSIHVNGRTLRVHLEIILIDGRMKVSRVKVK | 2.14
3 | TEEEEELHKILERMIKHLVTGDEEAILKLADPDVRVHRIIDGRELDIVGRENLRHWLHELLRQLGVDHIDVKSVTLQGDKIHMTGTMKWNGKTEETRIIFEVVNGRLKRMEFHEI | 0.982
4 | DEIEKSVKHHDQVFRTAIETGDEHELEHLADPNVRWDINGVDLHGRELYLKIVLEIRMRIELRVRDVRWQGNYIIVISEVDSHHHINGVETRDRSDAHLIIFKVNGRWELKESRRH | 1.35
5 | SEDHRMMKEALDKLIDSIETGDPELYLRLFDPDTQTRIGDKHIHGWEEIEKIFRKILERFDHFEHMHLEHFDIQGNYIHLDIRLWGKVNGKRITLNIRVVVVKYNGRWTIREESLT | 1.72
6 | SEDEEEAKRSIELEMRSWRTGDEDAWLRLADPDVKFVIDGREFHGREALEFLQNRFDHIEMREHEVRHVDLQGDKIHMDTRLRMILIYNGVEIEKETRTEIVVKKIDGRWILHQVEYR | 0.724
7 | NEDEREFRIFLELFILAMRTGDETTFKKLLDPDVKFRINGKEYHGWEEVWHVLEEIRIHDIKLTDMERVGDKLHLITRVEGEFDGRRHEIDTRLHVRKIDGRWLLRTVEIS | 2.13
8 | DEDEEEMRRVVELLVRDHFTGNFEKLKDLFDPNAKSDVDGVSMVGREWLEFLKRYLGADHIEVRVRHEDYYGNKVHFHLEIISRYGDKEIHVDTEMVIDKVDGRWYVRETRFK | 0.854
9 | TEEERSTRIAWEIWEMVHKTGDERLIRRFADPNVRIQIGEYNHHGREELENHTKRIDHLHVQDSDVKRVHHFDGQVHIDVHEIIHLEFDGVREDIKRRAHFVVVKYDGRWYLHHVKFH | 0.937
10 | DSDHHRAYEYAEFFIEWHETGNEDVLTELLDPHVRLIVDGQHYHGRDLIVRFLVQWRIHRFHIHDVKSIGEYIRVDTHVDMEFDGKRIITQVELVIIKINGRWRYKHISIP | 1.22
11 | DEDTRESEKMLSEILESHLTGNWRMIRHLADPHVRVEIGDKTYHGRDNLKRIFLDLLEKLGVDHMEFRDIHIRVQGDKLHIHIKVDLIVGDKVDIMQSHIHVEKINGRWYVHLVHWRLT | 0.817
12 | DEDTTMLEEMARLLVEMWLTGDEEKIYKLADPDVRLNVNGKDQIGREESEKLRRELLETLGIKHFEVEDLKIRLIDGRVNVHIYGIVKFNGVNVKMILDHHSRKVNGRWRIEHLRIIHI | 1.32
13 | DEMQEVLERFAHEWFHNLHTGDEDTLLKLADPNVRVHVGDKDLIGRELWKEELHKMKGLKLELHDYHAINGRIHLDVTQKFNGKEVELEMDIIVVNGRVKEIRHQRR | 1.06
14 | DDEEKEDKDAIKLLVKFWETGDWENISRMMDPHVRLEVGEFTYHGREHFSRLYLEQYERVDHIQFRIHHLEVVGDKMTADTEVHIDINGRHIRLRTHINMIKINGRWRLHSVLIN | 1.48
15 | DEEDQDWERILEELLRSLLTGDEEFIRRLIDPNVRMHIKQGDKRINLHGRDAIEKLLELLHRRIKGVRIEIKRHDIQGDKIYVDGVINIDGKEFKIIIHIIVINGRLHTVSFETE | 1.9
16 | DEREELDEHWFRLQFQAMETGDENLVRDNLDPHVKVVVGDKEFVGRHYAIRLFHDLGVDHLVKKSEDRQGEKVIVHGRLDIGDKRHEIVLIIRKIDGKWVVHEIIIR | 1.35
17 | DEDEREVKHWLKILLHELWTGDFRNVSRLMDPHARLLINGVTVVGREEFLEVLRRVDHIELRIRDMKVIDGRIHAETELIEHFDGRTFIHDTHMRAKKVDGRWRIESIEIR | 1.31
18 | DEEDREAHEAIRILIDLLRTGDFDSLTRLADPHVRLDIGDKRLHGMKDFSRWILELRIHNFDLRHFDLVGDKIHVEGSLHTEFNGKHHEIHIQINITKVNGRWKIDEVTSL | 1.63
19 | SDEQRDVKFMLDQWLRSIETGNEDEIRHLVDPNVRSDINGQTHHGRDEYVRHMVEIRVILESIELHDLRWQGDKIDVDAIVQGTIIVNGRKTRFIERVHLHSVKVNGRWEIKEYRVV | 1.42
20 | DHEEDLSHEFLERLVSAWRTGDEHTWNRLADPNYKLEINGRHSVGREDSLRVIKDIRDKYKGLTIDDVTIKDVRIFDGVIRAKMVLQLNFNGVNIEEEVDIVIEKVDGRWFLKFEIVK | 0.653
